Results: patent US20150259430A1 (MAB DISCOVERY, published 2015)

B1: Antibody D11 (antibody, V domains shown)
VH: QEHLVESGGGLVQPEGSLTLTCTASGFDFSSDDMSWVRQAPGKGLEWIGVIGTGNGGTYYASWAKGRFTISKTSSTTVTLQMTSLTAADTATYFCAAFWGLWGPGTLVTVSS
VL: AQVLTQTPSPVSAAVGGTVTINCQSSQNVYRNNRLAWFQQKPGQPPKLLIYTASTLASGVPSRFKGSGSGTQFTLTISDLECDDAATYYCAGGYSTDIYTFGGGTEVVVR
notes: rabbit IgG in B-cell supernatant
B2: Antibody 077.D03 (antibody, V domains shown)
VH: QSVEESGGRLVTPGTPLTLTCTVSGIDLSSNAMSWVRQAPGKGLEWIGFISSSGTTYYASWAKGRFTISKTSTTVDLKITSPTTEDTATYFCTRFDLWGQGTLVTVSS
VL: DVVMTQTPASVSEPVGGTVTINCQASQSITTALAWYQQKPGQPPKLLIYKASTLASGVSSRFKGSGSGAEYTLTISDLECADAATYYCQCTGYDTSYVGGFGGGTEVVVK
notes: as for B1

Assays:
[1] = target: T1, recombinant Fc chimeric conjugate of human HER3 (human, UniProt P21860 20-643); assay: ELISA, coated antigen; supernatant IgG 69.04 ng/mL
T1 construct: extracellular domain; Coated on the ELISA plate
Procedure: (§1) Microtiter plates were coated with a) c-Met, IGF-1R, EGFR, HER2, and/or HER3 protein or b) EGFR, HER2, and/or HER3 (recombinant Fc chimeric conjugates of human c-Met, IGF-1R, EGFR, HER2, HER3 or IL12 Rβ1). After a blocking process, specific antibodies from B-cell supernatants bind to the targets and are then detected by a POD-labeled anti-rabbit IgG antibody. The IL12R binding was used as a counter-screen.
(§2) 12.5 μL 0.5 μg/mL protein in PBS was transferred to a microtiter plate incubated and washed 3× with Wash Buffer. 90 μL Block Buffer was added to each well, incubated and washed. 12.5 μL Standard Antibody (Anti-EGF-Receptor; HER2 Rabbit anti-Human Monoclonal (extracellular domain) (SP3) Antibody; HER3 (N-terminal) antibody; start concentration 2 μg/ml; IL-12Rbeta1 antibody start concentration 500 ng/ml) in 1:2 dilutions or sample diluted in ELISA buffer was added, incubated and washed. 12.5 μl 1:5000 POD-Antibody (Anti-rabbit IgG, peroxidase-linked species-specific Fab2 fragment (from donkey) (ECL); assay dilution: 1:5000) in Elisa Buffer was added, incubated and washed. 15 μl TMB was added and 15 μl HCl was added after sufficient development. Absorbance (Optical Density O.D.) was read at 450 nm/620 nm.

[2] = target: T2, recombinant Fc chimeric conjugate of human c-Met (human, UniProt P08581 25-932); assay: ELISA, coated antigen; supernatant IgG 69.04 ng/mL
T2 construct: extracellular domain; Coated on the ELISA plate
Procedure: as §1, §2

[3] = target: T3, recombinant Fc chimeric conjugate of human HER2 (human, UniProt P04626 23-652); assay: ELISA, coated antigen; supernatant IgG 69.04 ng/mL
T3 construct: extracellular domain; Coated on the ELISA plate
Procedure: as §1, §2

[4] = target: T4, recombinant Fc chimeric conjugate of human IGF-1R (human, UniProt P08069 31-935); assay: ELISA, coated antigen
T4 construct: extracellular domain; Coated on the ELISA plate
Procedure: as §1, §2

[5] = target: T2, recombinant Fc chimeric conjugate of …; assay: ELISA, coated antigen
Procedure: as §1, §2

[6] = target: T5, recombinant Fc chimeric conjugate of human EGFR (human, UniProt P00533 25-645); assay: ELISA, coated antigen
T5 construct: extracellular domain; Coated on the ELISA plate; also called HER1; Her1
Procedure: as §1, §2

[7] = target: T3, recombinant Fc chimeric conjugate of …; assay: ELISA, coated antigen
Procedure: as §1, §2

T2 sequence (P08581 25-932, change not shown): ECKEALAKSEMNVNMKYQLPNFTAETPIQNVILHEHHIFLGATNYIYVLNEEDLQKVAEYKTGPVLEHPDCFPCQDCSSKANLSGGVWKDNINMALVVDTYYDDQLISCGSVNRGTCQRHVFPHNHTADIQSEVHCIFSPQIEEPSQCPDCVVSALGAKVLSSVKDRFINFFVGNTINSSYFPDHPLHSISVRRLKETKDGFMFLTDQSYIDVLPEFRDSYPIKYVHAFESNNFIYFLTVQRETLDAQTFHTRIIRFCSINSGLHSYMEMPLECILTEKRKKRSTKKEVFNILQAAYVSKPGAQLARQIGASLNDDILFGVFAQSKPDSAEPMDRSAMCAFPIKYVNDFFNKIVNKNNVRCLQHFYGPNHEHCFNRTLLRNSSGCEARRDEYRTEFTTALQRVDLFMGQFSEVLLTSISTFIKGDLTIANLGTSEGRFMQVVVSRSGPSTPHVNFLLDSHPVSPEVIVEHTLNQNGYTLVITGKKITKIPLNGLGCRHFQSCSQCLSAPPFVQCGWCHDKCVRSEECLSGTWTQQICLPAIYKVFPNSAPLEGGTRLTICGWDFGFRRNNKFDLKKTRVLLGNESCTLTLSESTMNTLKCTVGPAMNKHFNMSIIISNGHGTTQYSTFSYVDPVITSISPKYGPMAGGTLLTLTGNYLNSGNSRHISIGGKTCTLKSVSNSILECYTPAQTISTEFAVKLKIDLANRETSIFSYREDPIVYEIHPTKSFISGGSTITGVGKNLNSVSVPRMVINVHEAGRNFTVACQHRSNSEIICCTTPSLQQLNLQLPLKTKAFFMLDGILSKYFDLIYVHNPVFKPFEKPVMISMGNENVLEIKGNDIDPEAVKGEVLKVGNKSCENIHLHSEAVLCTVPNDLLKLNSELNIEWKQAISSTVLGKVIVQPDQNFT
T4 sequence (P08069 31-935, change not shown): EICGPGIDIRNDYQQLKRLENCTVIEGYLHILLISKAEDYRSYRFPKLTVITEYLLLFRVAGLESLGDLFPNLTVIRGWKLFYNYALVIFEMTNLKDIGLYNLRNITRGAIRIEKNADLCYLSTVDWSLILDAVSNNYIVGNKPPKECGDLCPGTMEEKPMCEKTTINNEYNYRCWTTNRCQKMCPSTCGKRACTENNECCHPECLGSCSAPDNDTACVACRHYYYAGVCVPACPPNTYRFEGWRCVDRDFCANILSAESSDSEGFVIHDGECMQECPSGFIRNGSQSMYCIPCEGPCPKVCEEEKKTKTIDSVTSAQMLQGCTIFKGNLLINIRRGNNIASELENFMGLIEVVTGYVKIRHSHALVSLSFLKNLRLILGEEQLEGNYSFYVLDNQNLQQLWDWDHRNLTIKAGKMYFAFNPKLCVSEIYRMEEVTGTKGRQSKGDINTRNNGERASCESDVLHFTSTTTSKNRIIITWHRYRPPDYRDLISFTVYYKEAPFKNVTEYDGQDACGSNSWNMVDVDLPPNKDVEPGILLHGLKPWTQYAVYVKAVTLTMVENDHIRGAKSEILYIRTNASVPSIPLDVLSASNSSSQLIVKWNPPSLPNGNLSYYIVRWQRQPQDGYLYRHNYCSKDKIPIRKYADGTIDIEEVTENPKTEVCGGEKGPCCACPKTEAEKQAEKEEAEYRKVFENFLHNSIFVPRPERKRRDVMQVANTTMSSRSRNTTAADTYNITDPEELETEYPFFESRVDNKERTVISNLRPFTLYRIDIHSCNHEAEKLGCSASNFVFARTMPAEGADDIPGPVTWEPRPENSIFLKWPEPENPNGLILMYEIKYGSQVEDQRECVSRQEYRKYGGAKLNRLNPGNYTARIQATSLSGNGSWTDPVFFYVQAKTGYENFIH
T1 sequence (P21860 20-643, change not shown): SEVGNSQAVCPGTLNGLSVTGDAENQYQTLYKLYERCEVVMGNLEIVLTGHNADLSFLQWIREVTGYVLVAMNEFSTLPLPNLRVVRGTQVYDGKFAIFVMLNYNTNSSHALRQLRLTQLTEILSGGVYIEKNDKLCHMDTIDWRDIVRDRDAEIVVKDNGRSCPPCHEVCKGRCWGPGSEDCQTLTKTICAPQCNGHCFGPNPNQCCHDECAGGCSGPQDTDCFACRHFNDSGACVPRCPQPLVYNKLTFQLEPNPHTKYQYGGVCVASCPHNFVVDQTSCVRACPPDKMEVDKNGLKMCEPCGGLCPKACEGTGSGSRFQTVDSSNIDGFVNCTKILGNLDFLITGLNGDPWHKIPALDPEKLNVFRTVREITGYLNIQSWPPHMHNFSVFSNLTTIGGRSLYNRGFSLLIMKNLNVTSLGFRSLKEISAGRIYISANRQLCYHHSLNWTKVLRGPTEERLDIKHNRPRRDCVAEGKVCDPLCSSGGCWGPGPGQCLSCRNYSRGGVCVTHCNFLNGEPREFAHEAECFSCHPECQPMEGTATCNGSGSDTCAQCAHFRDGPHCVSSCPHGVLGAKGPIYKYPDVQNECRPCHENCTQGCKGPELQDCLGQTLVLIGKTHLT

Binder | Optical density (OD) [1] [OD] | Optical density (OD) [2] [OD] | Optical density (OD) [3] [OD] | binding result [4] | binding result [5] | binding result [6] | binding result [7]
B1 | 1.76 | 0.149 | 0.119 | no binding (tested: OD 0.1 or lower) | – | – | –
B2 | – | – | – | – | no binding (tested: OD 0.1 or lower) | no binding (tested: OD 0.1 or lower) | no binding (tested: OD 0.1 or lower)
